We go through 15 molecules from PMC314469, “Protein Interaction Networks by Proteome Peptide Scanning” (PLoS Biology, 2004).

T1: Boi1 SH3 (BOI1_YEAST), P38041
T1 chain: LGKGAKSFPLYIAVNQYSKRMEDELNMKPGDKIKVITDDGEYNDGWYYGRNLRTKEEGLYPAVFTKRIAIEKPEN

T2: Boi2 SH3 (BOI2_YEAST), P39969
T2 chain: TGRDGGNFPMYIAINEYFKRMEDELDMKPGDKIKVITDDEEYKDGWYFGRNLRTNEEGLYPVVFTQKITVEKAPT

T3: Rvs167 SH3 (RV167_YEAST), P39743
T3 chain: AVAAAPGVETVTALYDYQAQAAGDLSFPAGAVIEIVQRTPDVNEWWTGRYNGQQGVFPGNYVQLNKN

T4: Yfr024 SH3 (LSB3_YEAST), P43603
T4 chain: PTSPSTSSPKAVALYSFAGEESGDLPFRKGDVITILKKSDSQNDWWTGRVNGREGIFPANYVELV

T5: Yhr016c SH3 (YSC84_YEAST), P32793
T5 chain: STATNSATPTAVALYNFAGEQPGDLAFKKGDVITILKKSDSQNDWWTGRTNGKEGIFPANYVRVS

In the first test the target is T1, Boi1 SH3 (BOI1_YEAST), P38041. Kind of test: SPOT array.
As for IIIPPIPSKHSLLK [YDR425W 171-184], the normalised SPOT signal, Boehringer light units (BLU); mean over the file's lines of this peptide worked out at 92.9.
The molecule IINPDTPHRRIFNQ [YBL019W 264-277] returned a normalised SPOT signal, Boehringer light units (BLU); mean over the file's lines of this peptide of 314.
On the same count and under the same terms, with IIGPDEPEKSLILK [YMR066W 43-56] the figure was 95.1; with IIFPTSPTKLTFSN [YDR130C 112-125], 45.5; with IIFPYDPLKLGTHA [YBR163W 509-522], 22.3.
Same read-out and setting: the value for ILKPDIPLRNMLLR [YGL224C 138-151] was 14700; that for IFDPQDPYRRAQQF [YHR150W 496-509] was 53.2; that for IFGPSFPFRSHIDV [YDL224C 170-183] was 138.
On the same count and under the same terms, the value for IFGPFGPMKEVKIL [YDR432W 144-157] was 63.3.
For IKYPGSPQRSSSFS [YMR036C 139-152], the normalised SPOT signal, Boehringer light units (BLU); mean over the file's lines of this peptide was determined as 105.
On to IFFPNEPIRFVYPY [YPR072W 415-428], for which the normalised SPOT signal, Boehringer light units (BLU); mean over the file's lines of this peptide was determined as 30.1.
Still for that read-out and setting: with IIKPYLPFKISKWL [YJR054W 69-82] the figure was 37.9; with IHSPRIPSKDEFIA [YER091C 704-717], 88.8; with IFNPQNPLKTGFEP [YMR087W 156-169], 95.5.
On the same count and under the same terms, with IFPPLNPARTSLNS [YDR312W 172-185] the figure was 72.9.

The next test has as its target T2, Boi2 SH3 (BOI2_YEAST), P39969. Kind of test: SPOT array.
IIIPPIPSKHSLLK [YDR425W 171-184] registered a normalised SPOT signal, Boehringer light units (BLU); mean over the file's lines of this peptide of 50.
As for IINPDTPHRRIFNQ [YBL019W 264-277], the normalised SPOT signal, Boehringer light units (BLU); mean over the file's lines of this peptide turned out to be 71.9.
For the molecule IIGPDEPEKSLILK [YMR066W 43-56], the normalised SPOT signal, Boehringer light units (BLU); mean over the file's lines of this peptide worked out at 33.5.
Still for that read-out and setting: the value for IIFPTSPTKLTFSN [YDR130C 112-125] was 13.9.
Turning to IIFPYDPLKLGTHA [YBR163W 509-522], the normalised SPOT signal, Boehringer light units (BLU); mean over the file's lines of this peptide amounted to 12.7.
On the same count and under the same terms, the value for ILKPDIPLRNMLLR [YGL224C 138-151] was 60; that for IFDPQDPYRRAQQF [YHR150W 496-509] was 51.8.
Still for that read-out and setting: with IFGPSFPFRSHIDV [YDL224C 170-183] the figure was 31.8; with IFGPFGPMKEVKIL [YDR432W 144-157], 23.4.
The same measure, in the same setting: with IKYPGSPQRSSSFS [YMR036C 139-152] the figure was 38.1; with IFFPNEPIRFVYPY [YPR072W 415-428], 36; with IIKPYLPFKISKWL [YJR054W 69-82], 39.8.
Consider IHSPRIPSKDEFIA [YER091C 704-717], for which the normalised SPOT signal, Boehringer light units (BLU); mean over the file's lines of this peptide was 42.
On the same count and under the same terms, with IFNPQNPLKTGFEP [YMR087W 156-169] the figure was 57.1.
As for IFPPLNPARTSLNS [YDR312W 172-185], the normalised SPOT signal, Boehringer light units (BLU); mean over the file's lines of this peptide was 31.3.

Another test has as its target T3, Rvs167 SH3 (RV167_YEAST), P39743. Kind of test: SPOT array.
For IIIPPIPSKHSLLK [YDR425W 171-184], the normalised SPOT signal, Boehringer light units (BLU); mean over the file's lines of this peptide is 22.6.
The same measure, in the same setting: with IINPDTPHRRIFNQ [YBL019W 264-277] the figure was 157; with IIGPDEPEKSLILK [YMR066W 43-56], 23.6; with IIFPTSPTKLTFSN [YDR130C 112-125], 84.2.
The same measure, in the same setting: the value for IIFPYDPLKLGTHA [YBR163W 509-522] was 82.3; that for ILKPDIPLRNMLLR [YGL224C 138-151] was 1640; that for IFDPQDPYRRAQQF [YHR150W 496-509] was 52.4.
The same measure, in the same setting: with IFGPSFPFRSHIDV [YDL224C 170-183] the figure was 391.
For the molecule IFGPFGPMKEVKIL [YDR432W 144-157], the normalised SPOT signal, Boehringer light units (BLU); mean over the file's lines of this peptide was 56.3.
On the same count and under the same terms, with IKYPGSPQRSSSFS [YMR036C 139-152] the figure was 22.8; with IFFPNEPIRFVYPY [YPR072W 415-428], 65.5; with IIKPYLPFKISKWL [YJR054W 69-82], 68.5.
Still for that read-out and setting: with IHSPRIPSKDEFIA [YER091C 704-717] the figure was 73.2.
Still for that read-out and setting: with IFNPQNPLKTGFEP [YMR087W 156-169] the figure was 61.8.
Turning to IFPPLNPARTSLNS [YDR312W 172-185], the normalised SPOT signal, Boehringer light units (BLU); mean over the file's lines of this peptide was 134.

The next test addresses T4, Yfr024 SH3 (LSB3_YEAST), P43603. Kind of test: SPOT array.
Consider IIIPPIPSKHSLLK [YDR425W 171-184], for which the normalised SPOT signal, Boehringer light units (BLU); mean over the file's lines of this peptide was 3190.
Still for that read-out and setting: with IINPDTPHRRIFNQ [YBL019W 264-277] the figure was 1670.
On the same count and under the same terms, the value for IIGPDEPEKSLILK [YMR066W 43-56] was 86; that for IIFPTSPTKLTFSN [YDR130C 112-125] was 314.
The same measure, in the same setting: the value for IIFPYDPLKLGTHA [YBR163W 509-522] was 17.2; that for ILKPDIPLRNMLLR [YGL224C 138-151] was 12900; that for IFDPQDPYRRAQQF [YHR150W 496-509] was 59.9.
Molecule IFGPSFPFRSHIDV [YDL224C 170-183] displayed a normalised SPOT signal, Boehringer light units (BLU); mean over the file's lines of this peptide of 9630.
Still for that read-out and setting: with IFGPFGPMKEVKIL [YDR432W 144-157] the figure was 195; with IKYPGSPQRSSSFS [YMR036C 139-152], 391; with IFFPNEPIRFVYPY [YPR072W 415-428], 209.
The same measure, in the same setting: the value for IIKPYLPFKISKWL [YJR054W 69-82] was 878; that for IHSPRIPSKDEFIA [YER091C 704-717] was 224.
Still for that read-out and setting: the value for IFNPQNPLKTGFEP [YMR087W 156-169] was 170.
The molecule IFPPLNPARTSLNS [YDR312W 172-185] displayed a normalised SPOT signal, Boehringer light units (BLU); mean over the file's lines of this peptide of 5080.

The target in the next test is T5, Yhr016c SH3 (YSC84_YEAST), P32793. Kind of test: SPOT array.
In turn, IIIPPIPSKHSLLK [YDR425W 171-184] gave a normalised SPOT signal, Boehringer light units (BLU); mean over the file's lines of this peptide of 204.
IINPDTPHRRIFNQ [YBL019W 264-277]: the normalised SPOT signal, Boehringer light units (BLU); mean over the file's lines of this peptide was 530.
Still for that read-out and setting: with IIGPDEPEKSLILK [YMR066W 43-56] the figure was 63.1; with IIFPTSPTKLTFSN [YDR130C 112-125], 0.
Still for that read-out and setting: with IIFPYDPLKLGTHA [YBR163W 509-522] the figure was 55.6; with ILKPDIPLRNMLLR [YGL224C 138-151], 2420; with IFDPQDPYRRAQQF [YHR150W 496-509], 316.
As to IFGPSFPFRSHIDV [YDL224C 170-183], the normalised SPOT signal, Boehringer light units (BLU); mean over the file's lines of this peptide worked out at 6610.
Same read-out and setting: the value for IFGPFGPMKEVKIL [YDR432W 144-157] was 260; that for IKYPGSPQRSSSFS [YMR036C 139-152] was 198.
Molecule IFFPNEPIRFVYPY [YPR072W 415-428] registered a normalised SPOT signal, Boehringer light units (BLU); mean over the file's lines of this peptide of 238.
On the same count and under the same terms, the value for IIKPYLPFKISKWL [YJR054W 69-82] was 169; that for IHSPRIPSKDEFIA [YER091C 704-717] was 187.
Same read-out and setting: with IFNPQNPLKTGFEP [YMR087W 156-169] the figure was 122; with IFPPLNPARTSLNS [YDR312W 172-185], 829.
